± gives the uncertainty stated by the source.
Assay: self-splicing fitness, log relative to wild type (ln ratio); higher = more splicing; Tetrahymena group I intron in knt gene, E. coli kanamycin selection, DiMSum; sequences stand for … in CUCUCU…GGAGGGAAAAGUUAUCAGGCAUGCACCUGGUAGCUAGUCUUUAAACCAAUAGAUUGCAUCGGUUUAAAAGGCAAGACCGUCAAAUUGCGGGAAAGGGGUCAACAGCCGUUCAGUACCAAGUCUCAGGGGAAACUUUGAGAUGGCCUUGCAAAGGGUAUGGUAAUAAGCUGACGGACAUGGUCCUAACCACGCAGCCAAGUCCUAAGUCAACAGAUCUUCUGUUGAUAUGGAUGCAGUUCACAGACUAAAUGUCGGUCGGGGAAGAUGUAUUCUUCUCAUAAGAUAUAGUCGGACCUCUCCUUAAUGGGAGCUAGCGGAUGAAGUGAUGCAACACUGGAGCCGCUGGGAACUAAUUUGUAUGCGAAAGUAUAUUGAUUAGUUUUGGAGUACUCGUGGUCG
Method in brief: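 Six replicate transformations of E. coli BL21(DE3) with a pET-22b(+) library were grown overnight at 37°C or 30°C. The library randomised all eight P1ex-region intron nucleotides, the intron lying in the knt kanamycin-resistance gene, and plates were LB agar with or without 25 μg/mL kanamycin plus 100 μg/mL carbenicillin, 50 μM IPTG and 0.2% rhamnose. Pooled colonies were amplicon-sequenced on an Illumina HiSeq 2500, and fitness is the DiMSum error-weighted combination of wild-type-normalised replicate fold changes, kanamycin versus none.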

| Sequence | self-splicing fitness (ln) (30 °C) | self-splicing fitness (ln) (37 °C) |
| --- | --- | --- |
| CGUCAGCAAUAUUACGUCUU | -2.3 ± 0.14 | -0.743 ± 0.11 |
| CGUCAGCAAUAUUACGUGAU | -2.04 ± 0.1 | -1.18 ± 0.13 |
| CGUCAGCAAUAUUACGUGCA | -0.497 ± 0.057 | -0.0444 ± 0.072 |
| CGUCAGCAAUAUUACGUGCC | -0.61 ± 0.16 | 0.32 ± 0.19 |
| CGUCAGCAAUAUUACGUGUC | -3.72 ± 0.17 | -2.96 ± 0.19 |
| CGUGAGCAAUAUUACGAACA | -0.649 ± 0.15 | -0.766 ± 0.17 |
| CGUGAGCAAUAUUACGACCA |  | -0.768 ± 0.24 |
| CGUGAGCAAUAUUACGACCG | -3.79 ± 0.33 | -1.39 ± 0.27 |
| CGUGAGCAAUAUUACGACGA | -1.92 ± 0.12 | -0.885 ± 0.12 |
| CGUGAGCAAUAUUACGACGG | -0.058 ± 0.098 | 0.525 ± 0.11 |
| CGUGAGCAAUAUUACGAGAA | -3.1 ± 0.34 | -2.08 ± 0.24 |
| CGUGAGCAAUAUUACGAUAG | -1.13 ± 0.1 | -0.217 ± 0.15 |
| CGUGAGCAAUAUUACGAUCC | -2.65 ± 0.25 | -0.358 ± 0.25 |
| CGUGAGCAAUAUUACGAUCU | -0.613 ± 0.088 | -0.995 ± 0.14 |
| CGUGAGCAAUAUUACGAUGU | -1.56 ± 0.16 | -2.29 ± 0.25 |
| CGUGAGCAAUAUUACGCAAG | -2.85 ± 0.15 | -0.853 ± 0.13 |
| CGUGAGCAAUAUUACGCACA | -1.32 ± 0.16 | -0.702 ± 0.18 |
| CGUGAGCAAUAUUACGCCAC | -1.74 ± 0.35 |  |
| CGUGAGCAAUAUUACGCCCA |  | -2.03 ± 0.46 |
| CGUGAGCAAUAUUACGCGAA | -2.35 ± 0.14 | -3.33 ± 0.29 |
| CGUGAGCAAUAUUACGCGAU | -2.75 ± 0.23 | -1.35 ± 0.24 |
| CGUGAGCAAUAUUACGCUCG | -2.69 ± 0.26 | -2.64 ± 0.24 |
| CGUGAGCAAUAUUACGCUGG | -1.7 ± 0.15 | -1.47 ± 0.18 |
| CGUGAGCAAUAUUACGGAUU | -4.38 ± 0.36 | -3.78 ± 0.46 |
| CGUGAGCAAUAUUACGGCGG | 0.333 ± 0.089 | 0.466 ± 0.11 |
| CGUGAGCAAUAUUACGGGGG | -2.65 ± 0.29 | -3.28 ± 0.37 |
| CGUGAGCAAUAUUACGGGUA |  | -2.39 ± 0.38 |

| Sequence | self-splicing fitness (ln) (30 °C) | self-splicing fitness (ln) (37 °C) |
| --- | --- | --- |
| CGUGAGCAAUAUUACGUAAG | -0.896 ± 0.1 | -1.14 ± 0.15 |
| CGUGAGCAAUAUUACGUCGA | -1.75 ± 0.29 | -3.3 ± 0.3 |
| CGUUAGCAAUAUUACGAAAG | -1.11 ± 0.13 | -0.689 ± 0.18 |
| CGUUAGCAAUAUUACGAAGC | -2.28 ± 0.43 |  |
| CGUUAGCAAUAUUACGAAGG | -1.69 ± 0.1 | -0.895 ± 0.11 |
| CGUUAGCAAUAUUACGACGU | -2.74 ± 0.14 | -2.05 ± 0.16 |
| CGUUAGCAAUAUUACGAGAG | -2.83 ± 0.25 | 0.0196 ± 0.17 |
| CGUUAGCAAUAUUACGAGAU | -2.01 ± 0.23 | -2.33 ± 0.35 |
| CGUUAGCAAUAUUACGAGUA | -3.68 ± 0.37 | -2.67 ± 0.36 |
| CGUUAGCAAUAUUACGAUAU | -3.41 ± 0.14 | -2.22 ± 0.14 |
| CGUUAGCAAUAUUACGAUGU | -2.6 ± 0.26 | -1.78 ± 0.36 |
| CGUUAGCAAUAUUACGCAAA | -2.53 ± 0.36 | -2.67 ± 0.48 |
| CGUUAGCAAUAUUACGCAAU |  | -1.02 ± 0.23 |
| CGUUAGCAAUAUUACGCAUG | -1.13 ± 0.12 | -0.626 ± 0.17 |
| CGUUAGCAAUAUUACGCUCA | -0.383 ± 0.14 | -0.384 ± 0.15 |
| CGUUAGCAAUAUUACGCUGU | -2.88 ± 0.22 | -2.71 ± 0.33 |
| CGUUAGCAAUAUUACGCUUG | -1.71 ± 0.12 | -1.26 ± 0.15 |
| CGUUAGCAAUAUUACGGAAC | -3.05 ± 0.48 | -2.4 ± 0.41 |
| CGUUAGCAAUAUUACGGAUA | -1.83 ± 0.37 | -2.08 ± 0.31 |
| CGUUAGCAAUAUUACGGAUU | -2.33 ± 0.23 | -2.21 ± 0.24 |
| CGUUAGCAAUAUUACGGCGC |  | -2.24 ± 0.32 |
| CGUUAGCAAUAUUACGGGCU | -1.6 ± 0.099 | -1.46 ± 0.16 |
| CGUUAGCAAUAUUACGGGGG | -4.81 ± 0.45 | -3.46 ± 0.29 |
| CGUUAGCAAUAUUACGGGUA | -3.15 ± 0.37 | -2.08 ± 0.2 |
| CGUUAGCAAUAUUACGUAAU | -2.88 ± 0.24 | -1.63 ± 0.25 |
| CGUUAGCAAUAUUACGUAUC |  | -2.15 ± 0.28 |
| CGUUAGCAAUAUUACGUCUC |  | -1.86 ± 0.35 |

| Sequence | self-splicing fitness (ln) (30 °C) | self-splicing fitness (ln) (37 °C) |
| --- | --- | --- |
| CGUUAGCAAUAUUACGUGCC | -2.8 ± 0.31 | -1.59 ± 0.29 |
| CGUUAGCAAUAUUACGUUCC |  | -1.47 ± 0.45 |
| CUAAAGCAAUAUUACGAAGU | -4.21 ± 0.26 | -2.57 ± 0.28 |
| CUAAAGCAAUAUUACGACAA | -2.42 ± 0.15 | -1.2 ± 0.19 |
| CUAAAGCAAUAUUACGACGC |  | -1.39 ± 0.45 |
| CUAAAGCAAUAUUACGAGCA | -3.41 ± 0.25 | -1.08 ± 0.2 |
| CUAAAGCAAUAUUACGAGUU | -2.84 ± 0.32 | -1.85 ± 0.26 |
| CUAAAGCAAUAUUACGCGAA | -3.71 ± 0.25 | -2.63 ± 0.36 |
| CUAAAGCAAUAUUACGCGCU | -3.15 ± 0.16 | -2.06 ± 0.23 |
| CUAAAGCAAUAUUACGCGGC | -1.21 ± 0.13 | -1.28 ± 0.17 |
| CUAAAGCAAUAUUACGCUCA | -3.67 ± 0.25 | -2.39 ± 0.19 |
| CUAAAGCAAUAUUACGGAAA | -4.24 ± 0.37 | -2.44 ± 0.35 |
| CUAAAGCAAUAUUACGGACU | -3.93 ± 0.25 | -1.9 ± 0.27 |
| CUAAAGCAAUAUUACGGAGC | -3.27 ± 0.31 | -1.2 ± 0.29 |
| CUAAAGCAAUAUUACGGAUC | -2.3 ± 0.21 |  |
| CUAAAGCAAUAUUACGGCUU | -3.8 ± 0.21 | -2.44 ± 0.29 |
| CUAAAGCAAUAUUACGGGAG | -0.542 ± 0.056 | 0.188 ± 0.077 |
| CUAAAGCAAUAUUACGGUUC | -4.09 ± 0.2 | -2.68 ± 0.18 |
| CUAAAGCAAUAUUACGUAGU | -4.53 ± 0.2 | -2.59 ± 0.17 |
| CUAAAGCAAUAUUACGUGUU | -4.79 ± 0.19 | -2.91 ± 0.16 |
| CUAAAGCAAUAUUACGUUAG | -2.33 ± 0.093 | -1.77 ± 0.1 |
| CUAAAGCAAUAUUACGUUAU | -4.11 ± 0.21 | -3.34 ± 0.26 |
| CUAAAGCAAUAUUACGUUUG | -1.47 ± 0.075 | -0.672 ± 0.092 |
| CUACAGCAAUAUUACGAAAC | -3.35 ± 0.26 | -2.37 ± 0.39 |
| CUACAGCAAUAUUACGAACG | 0.241 ± 0.11 | 0.6 ± 0.14 |
| CUACAGCAAUAUUACGACAU | -3.878 ± 0.021 | -2.67 ± 0.037 |

Reference: the supplement of paper PMC7877785
